8 molecules from patent US20240247080A1, “GLP1/GIP/NPY2 RECEPTOR TRIPLE AGONISTS” (Boehringer Ingelheim International GmbH, priority 2022, published 2024) can be followed below.

Starred links: 1 amine or outer side, 2 acyl side, 3 side chain; linkers in the order of their positions; H or OH if unused. Non-standard residues stand in square brackets, D forms with d. Groups on a side chain read outwards from the residue. No end group written: not given here. *: point of attachment. C18 diacid = O=C(O)CCCCCCCCCCCCCCCCC(=O)*; γGlu = O=C(O)[C@H](CCC(=O)[*:2])N[*:1]; AEEA = NCCOCCOCC(=O)O; Aib = CC(C)(N)C(=O)O

What all share (assay): cell-based or functional assay
One assay addresses human GLP-1 receptor (human, UniProt P43220 24-463).
The target in another assay is T1, human GIP receptor (human, UniProt P48546 22-466).
T1 sequence (looked up): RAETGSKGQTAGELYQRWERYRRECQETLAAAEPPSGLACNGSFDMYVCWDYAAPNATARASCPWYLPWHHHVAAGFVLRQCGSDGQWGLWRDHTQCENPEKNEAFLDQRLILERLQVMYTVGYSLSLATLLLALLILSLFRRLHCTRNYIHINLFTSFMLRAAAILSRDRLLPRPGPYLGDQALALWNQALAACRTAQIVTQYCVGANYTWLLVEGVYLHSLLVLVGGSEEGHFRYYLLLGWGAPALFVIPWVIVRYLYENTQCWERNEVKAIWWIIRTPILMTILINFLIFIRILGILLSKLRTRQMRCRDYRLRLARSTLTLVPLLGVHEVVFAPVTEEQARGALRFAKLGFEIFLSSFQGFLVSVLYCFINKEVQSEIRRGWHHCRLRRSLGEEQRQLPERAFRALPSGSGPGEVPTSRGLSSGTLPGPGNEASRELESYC

The target of assay [1] is T2, human neuropeptide Y2 receptor (human, UniProt P49146 1-381).
T2 sequence (looked up): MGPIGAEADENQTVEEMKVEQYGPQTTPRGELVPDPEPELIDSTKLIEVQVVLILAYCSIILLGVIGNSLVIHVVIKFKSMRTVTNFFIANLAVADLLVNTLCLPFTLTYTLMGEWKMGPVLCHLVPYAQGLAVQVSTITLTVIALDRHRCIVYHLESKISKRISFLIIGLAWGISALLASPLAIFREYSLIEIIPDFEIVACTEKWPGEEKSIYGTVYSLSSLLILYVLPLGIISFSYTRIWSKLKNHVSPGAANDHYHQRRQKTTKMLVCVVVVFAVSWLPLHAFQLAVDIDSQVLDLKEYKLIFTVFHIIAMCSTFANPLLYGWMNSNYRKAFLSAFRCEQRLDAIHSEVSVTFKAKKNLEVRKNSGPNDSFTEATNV

B1: Compound 96 (peptide)
peptide: YXEGTFTSDYSIXLEKQAQXAFVEWLIKGGPSSGVSLRHYYNWLTRQRY
modifications: Aib at 2, 13, 20; K28 side chain: C20DA-gGlu-gGlu-gGlu-gGlu-gGlu-gGlu-eLys; C-terminal NH2
For the molecule B1, in the assay with human GLP-1 receptor, the “EC50 CreLuc hGLP1R 0.5% hP” value is 0.14 nM and the “EC50 CreLuc hGLP1R 100% hP” value was determined as 2.12 nM. Besides, in the assay with human GIP receptor, the “EC50 CreLuc hGIPR 0.5% hP” value turned out to be 0.19 nM and the “EC50 CreLuc hGIPR 100% hP” value came to 1.07 nM. Further, in assay [1], the “EC50 CreLuc hNPY2R 0.5% hP” value is 15.5 nM and the “EC50 CreLuc hNPY2R 100% hP” value stood at 44.8 nM.

B2: Compound 95 (peptide)
peptide: YXEGTFTSDYSIXLEKQAQXAFVEWLIKGGPSSPASLRHYYNWLTRQRY
modifications: Aib at 2, 13, 20; K28 side chain: C20DA-gGlu-gGlu-gGlu-gGlu-gGlu-gGlu-eLys; C-terminal NH2
Regarding B2, in the assay with human GLP-1 receptor, the “EC50 CreLuc hGLP1R 0.5% hP” value was 0.13 nM and the “EC50 CreLuc hGLP1R 100% hP” value turned out to be 2.76 nM. In the assay with human GIP receptor, the “EC50 CreLuc hGIPR 0.5% hP” value worked out at 0.13 nM and the “EC50 CreLuc hGIPR 100% hP” value amounted to 0.75 nM. Further, in assay [1], the “EC50 CreLuc hNPY2R 0.5% hP” value was 20.6 nM and the “EC50 CreLuc hNPY2R 100% hP” value is 56.9 nM.

B3: Compound 93 (peptide)
peptide: YXEGTFTSDYSIXLEKQAQXAFVEWLIKGGPSEYESLRHYYNWLTRQRY
modifications: Aib at 2, 13, 20; K28 side chain: C20DA-gGlu-gGlu-gGlu-gGlu-gGlu-gGlu-eLys; C-terminal NH2
In the case of B3, in the assay with human GLP-1 receptor, the “EC50 CreLuc hGLP1R 0.5% hP” value came out at 0.22 nM and the “EC50 CreLuc hGLP1R 100% hP” value is 8.97 nM. In addition, in the assay with human GIP receptor, the “EC50 CreLuc hGIPR 0.5% hP” value worked out at 0.14 nM and the “EC50 CreLuc hGIPR 100% hP” value came to 2.35 nM. In assay [1], the “EC50 CreLuc hNPY2R 0.5% hP” value stood at 15.3 nM and the “EC50 CreLuc hNPY2R 100% hP” value worked out at 85.7 nM.

B4: Compound 94 (peptide)
peptide: YXEGTFTSDYSIXLEKQAQXAFVEWLIKGGPSSGISLRHYYNWLTRQRY
modifications: Aib at 2, 13, 20; K28 side chain: C20DA-gGlu-gGlu-gGlu-gGlu-gGlu-gGlu-eLys; C-terminal NH2
Turning to B4, in the assay with human GLP-1 receptor, the “EC50 CreLuc hGLP1R 0.5% hP” value is 0.09 nM and the “EC50 CreLuc hGLP1R 100% hP” value stood at 1.98 nM. Also, in the assay with human GIP receptor, the “EC50 CreLuc hGIPR 0.5% hP” value is 0.22 nM and the “EC50 CreLuc hGIPR 100% hP” value was 1.04 nM. Moreover, in assay [1], the “EC50 CreLuc hNPY2R 0.5% hP” value stood at 12.3 nM and the “EC50 CreLuc hNPY2R 100% hP” value was 40.2 nM.

B5: Compound 89 (peptide)
peptide: YXEGTFTSDYSIXLEKQAQXAFVQWLIKGGPEEGASLRHYYNWLTRQRY
modifications: Aib at 2, 13, 20; K28 side chain: C20DA-gGlu-gGlu-gGlu-gGlu-gGlu-gGlu-eLys; C-terminal NH2
For B5, in the assay with human GLP-1 receptor, the “EC50 CreLuc hGLP1R 0.5% hP” value amounted to 0.25 nM and the “EC50 CreLuc hGLP1R 100% hP” value stood at 8.9 nM. In addition, in the assay with human GIP receptor, the “EC50 CreLuc hGIPR 0.5% hP” value came to 1.01 nM and the “EC50 CreLuc hGIPR 100% hP” value is 1.7 nM. Moreover, in assay [1], the “EC50 CreLuc hNPY2R 0.5% hP” value came to 14.8 nM and the “EC50 CreLuc hNPY2R 100% hP” value worked out at 42.4 nM.

B6: Compound 91 (peptide)
peptide: YXEGTFTSDYSIXLEKQAQXAFVEWLIKGGPSSGATLRHYYNWLTRQRY
modifications: Aib at 2, 13, 20; K28 side chain: C20DA-gGlu-gGlu-gGlu-gGlu-gGlu-gGlu-eLys; C-terminal NH2
With B6, in the assay with human GLP-1 receptor, the “EC50 CreLuc hGLP1R 0.5% hP” value was found to be 0.17 nM and the “EC50 CreLuc hGLP1R 100% hP” value stood at 4.16 nM. Also, in the assay with human GIP receptor, the “EC50 CreLuc hGIPR 0.5% hP” value is 0.21 nM and the “EC50 CreLuc hGIPR 100% hP” value worked out at 1.72 nM. In assay [1], the “EC50 CreLuc hNPY2R 0.5% hP” value came to 16.2 nM and the “EC50 CreLuc hNPY2R 100% hP” value is 53.1 nM.

B7: Compound 172 (peptide)
peptide: YXEGTFTSDLSIXLEKQAQXAFVEWLIKGGPSSGASLRHYYNWLTRQRY
modifications: Aib at 2, 13, 20; K28 side chain: C20DA-gGlu-gGlu-gGlu-gGlu-gGlu-gGlu-eLys; C-terminal NH2
As for B7, in the assay with human GLP-1 receptor, the “EC50 CreLuc hGLP1R 0.5% hP” value was determined as 0.07 nM and the “EC50 CreLuc hGLP1R 100% hP” value worked out at 2 nM. Besides, in the assay with human GIP receptor, the “EC50 CreLuc hGIPR 0.5% hP” value turned out to be 0.21 nM and the “EC50 CreLuc hGIPR 100% hP” value came to 1.83 nM. Moreover, in assay [1], the “EC50 CreLuc hNPY2R 0.5% hP” value turned out to be 20.2 nM and the “EC50 CreLuc hNPY2R 100% hP” value is 86.1 nM.

Y[Aib]EGTFTSDYSI[Aib]LEKQAQ[Aib]EFVEWLIK([AEEA-AEEA-γGlu-γGlu-γGlu-C18 diacid])GGPSSGASLRHYYNWLTRQRY-NH2 [Compound 171]: in the assay with human GLP-1 receptor, the “EC50 CreLuc hGLP1R 0.5% hP” value came to 0.27 nM and the “EC50 CreLuc hGLP1R 100% hP” value was 4.17 nM. Also, in the assay with human GIP receptor, the “EC50 CreLuc hGIPR 0.5% hP” value came to 0.2 nM and the “EC50 CreLuc hGIPR 100% hP” value is 0.83 nM. Further, in assay [1], the “EC50 CreLuc hNPY2R 0.5% hP” value was 7.51 nM and the “EC50 CreLuc hNPY2R 100% hP” value amounted to 30.4 nM.
